In the supplement of paper PMC12455559:
± gives the standard deviation of the averaged measurements.

Assays:
[1] = melting temperature (DSF); higher = more thermostable
In short: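 Candidate enzymes were expressed in E. coli C41(DE3), purified on nickel beads and released by SUMO protease cleavage. For differential scanning fluorimetry, 45 μL enzyme (0 to 0.3 mg/mL) was mixed with 5 μL 5X Sypro Orange in sealed PCR plates on a Bio-Rad CFX96 instrument. Fluorescence was read from 25 °C in steps of 0.3 °C per cycle (ramp 0.3 °C/s) for 250 cycles. The read-out is melting temperature.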

[2] = PET hydrolysis, aromatic products released after 48 h (umol product/mg enzyme); higher = more PET depolymerization activity
In short: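 Hydrolysis activity toward PET is reported as supernatant aromatic product per mg enzyme. To measure it, 5 μg (50 μL) of tagless enzyme was incubated with 3.5 mg amorphous PET film or crystalline PET powder in 450 μL buffer for 48 h at 40 or 60 °C in sealed, unshaken plates. The product was quantified by absorbance at 260 and 280 nm relative to buffer blanks.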

[3] = purified protein yield per well (BCA); higher = higher soluble expression
In short: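 The measured quantity is purified protein yield per well, determined with the Pierce Rapid Gold BCA kit. Anything below 25 ug (0.1 mg/mL) lies under the detection threshold. Enzymes were expressed in E. coli C41(DE3) in 2 mL autoinduction cultures with 100 µg/mL kanamycin at 37 °C for 2 h, then 18 °C for 40 h, and purified on an OT-2 robot using Ni-charged magnetic beads and SUMO protease release.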

[4] = substrate: cryPow, 40 °C, pH 4.5
[5] = substrate: cryPow, 40 °C, pH 5.5
[6] = substrate: cryPow, 40 °C, pH 6.5
[7] = substrate: cryPow, 40 °C, pH 7.5
[8] = substrate: cryPow, 60 °C, pH 4.5
[9] = substrate: cryPow, 60 °C, pH 5.5
[10] = substrate: cryPow, 60 °C, pH 6.5
[11] = substrate: cryPow, 60 °C, pH 7.5
[12] = substrate: aFilm, 40 °C, pH 4.5
[13] = substrate: aFilm, 40 °C, pH 5.5
[14] = substrate: aFilm, 40 °C, pH 6.5
[15] = substrate: aFilm, 40 °C, pH 7.5
[16] = substrate: aFilm, 60 °C, pH 4.5
[17] = substrate: aFilm, 60 °C, pH 5.5
[18] = substrate: aFilm, 60 °C, pH 6.5
[19] = substrate: aFilm, 60 °C, pH 7.5

Row | Sequence | melting temperature [1] [C] | PET hydrolysis [2, 4] | PET hydrolysis [2, 5] | PET hydrolysis [2, 6] | PET hydrolysis [2, 7] | PET hydrolysis [2, 8] | PET hydrolysis [2, 9] | PET hydrolysis [2, 10] | PET hydrolysis [2, 11] | purified protein yield per well [3] [µg] | PET hydrolysis [2, 12] | PET hydrolysis [2, 13] | PET hydrolysis [2, 14] | PET hydrolysis [2, 15] | PET hydrolysis [2, 16] | PET hydrolysis [2, 17] | PET hydrolysis [2, 18] | PET hydrolysis [2, 19] | PET hydrolysis ([2]; substrate: cryPow, 40 °C, pH 8.5)
1 | ADNPYQRGPDPTRTSVATENGPFANTSVSVPTGYGFNGGRIYYPTDTSQGTFGAIAISPGYTALFSAELAWMGPWLASHGFVVIGIETNSRNDFDTARGTQLLAALDYLTQQSPVRDRVDPTRLAVAGHSMGGGGALSAATRRSSLKAAVGIAPYSPSSNLANDRVPTMIFSGQADTVVTPSYATSLYNSLPSTTESIYLEVAGADHGFMVGRSNPVMIRTMLPFLKMFIDNDARYSQFLCPLLDSSGVVTSRSTCPLLPSTPTTPPTDPPTDPPTNPPGSANEIVGTQSGRCVDVPNAATTNGTRVQLYTCNKQTNQAWTYTSGKQLQVYGTMCLDAAGSGNGAAVQIYSCHSQTNQQWNVNSNGTISNVQSGRCLDVWSTSNGAQIQLYDCHGQTNQQFRLAALGGGTQTPTPTPTTPPPTGGACDLPSSYRWSSTG [ESM143] | 55.9 | < 3 | < 3 | < 3 | < 3 | < 3 | < 3 | < 3 | < 3 | 55.9 |  |  |  |  |  |  |  |  | 
2 | RPAAPADSPYQRGPDPTVSSVAAQRGTFATAELTVPPGNGFNGGKIYYPTDTSQGTWAAVAAVPGYTAKWAAEGAWMGPWLASFGFVVIGIDTNSPNDYDTARGTQLLAALDYLTQRSPVRDRVDPGRLGVIGHSMGGGGAINAAERRPSLKAALPLAPFSPSQNLSTLRVPTMIMGARDDGTVTPSYLNGLYGGMPATTPSAYIELTSGGHGFPTWGNSNVTRRTIPWLKIFLDEDTRYTQFLCPSLPDRTGISRSQVTCGSVPGDGTTPPPATGRQVVGAASGRCLDVPGSSQANGTQLQLWDCLDQAGQKWARTDAGELRVLGGKCLDAEASGTAPGTRAVVWDCHGGTNQRWNVTPDGTITSAQSGLCLDAYNAGTANGTRTVLWTCNGGSNQRWTWR [TEP102] | 60.4 | 5.5 ± 0.71 | 13 ± 2.8 | 25.5 ± 0.71 | 26 ± 1.4 | < 3 | < 3 | < 3 | < 3 | 252 | < 3 | < 3 | < 3 | < 3 | < 3 | < 3 | < 3 | < 3 | 
3 | DPPTHAKGVKPGPSELAAPSASDLAADGPHAVTTTAISGSVTPGFGAATIYAPASGSGYGGVAISPGYMSTQSAVSWLGPRLASHGFVVITFDTTTIWDNPDSRGVQLLAALDYLTGSSPARGQVDASRLAVMGHSMGGGGSLAAAKSRPSIDAAIPLTPWHTDKTWPEVSTPTLIVGAENDGIAPVASHAEPFYESLATSTDRAYLELNAATHSAPNSENAQISTYSLAWLKRFVDGDTSVDPILCPGPAASSTVEEYRSSCPF [DP019] | 42.7 |  | < 3 | < 3 | < 3 |  |  |  |  | 28 |  |  |  |  |  |  |  |  | < 3
4 | GRVMAASDSGTAADERVYAEPSVDPASVGSAGRNPYERGPEPTLASVAAEYGPFDTDQLTVPPGHGFNGGYIYYPTDTSQTFGAVAIVPGYTALFADEEAWMGPRLASFGFVVIGIETNSRDDWDIARGEQLLAALDYLVHHSPVRARIDANRLAVVGHSMGGGGALFAATQRPSLKAVVALAPYFPSGSLAAIRVPTMIIGGQDDTVVTPSYLDDLYASRPAHTPGAYLMLADADHLFATRPNTVEMRLLIPWLKIFVDHDTRYTQFLCPVADRSGIARHHVT [TEP126] | 55.9 | < 3 | < 3 | < 3 | < 3 | < 3 | < 3 | < 3 | < 3 | 166 |  |  |  |  |  |  |  |  | 
5 | DQVGQAPTADNITGNGSFATTSAAITNQTGFGGGTVYYPTADGTYPVVAIVPGFAATWSQISWLGPRVASWGFVVVGVDTTSVFDSPQQRGDEFLAALNWAANSAPASTRGKVDGTRRGVAGWSMGGGGTLEAMAKDTTLKAGVPLAPWDTTQDWSKIGKPVFIVGAQNDLIAPPASHAIPFYNSLAGPKSYLELAGADHFFPISANPTVSRAVVSWFKRFVSADDRFAPFTCGFAGAAVSAFRTTAC [TEP103] | 71.8 | 19 | 35 | 71 | 43 |  |  |  |  | 45.9 |  |  |  |  |  |  |  |  | 
6 | VEIGPNPTSTLLNGNGPFSVSSSSVSSWVSGFGGGTIYYPTASGQYGVIAVCPGYTGTSSSISWFARRLATHGFVTIAMNTNSRFDFPDSRATQLAAALNYLLNSSSSTIRSRIRTADRGVAGHSMGGGGTLRASERDSNLKVGIPLTPWHTDKTWGSLSVPQMIFGADGDTVAPASSHARTFYNSIPSSTKKAYALLNNASHFTPNSTDERIGRYGVAFAKRFVDGDTRYEPFLCGAEHSTYATSWKFDTYLSTCPYGGGSEPEPDYPWWYWWR [ESM162] | 69.7 | < 3 | < 3 | < 3 | < 3 |  |  |  |  | 31.8 |  |  |  |  |  |  |  |  | 
7 | ADNPYQRGPNPTRESVAANRGTFATAETSVGGGNGFGGAKIYYPADTSQGKFAALAVVPGYTATWAAEGAWMGHWLASFGFVIIGIDTNSRNDWDTARGDQLLAALDYLTQRSSVRDRVDANRLGVMGHSMGGGGAISAALKRPTLKAAIGNAPFSASQNLTTMRVPIALNAGQRDGTVTPSMVTGYYNQVPATTEKMYLEFSGAGHAFPTSNNSALTRKIIPWMKIFLDQDTRYQQFLCPVMDNTGISASRSSCPLIPGDPTPPTDTYSLAGAASGKCADVEGRSQTNGAKLLLWPCNGQVNQRWTQTAAGELRVYDNPKCMDAGGSGQGERVTSNACNGGNSQKWTVNANGTVTNTTSGRCLDATGTADDAPVVVNTCNGAASQNWSKRS [TEP131] | 55.3 | < 3 | < 3 | 4 | 6.5 ± 0.71 | < 3 | < 3 | < 3 | < 3 | 331 | < 3 | < 3 | < 3 | < 3 | < 3 | < 3 | < 3 | < 3 | 
8 | QSPSAAANPYERGPDPTVSSVAAQRGTFATAEVTVPPGNGFNGGKIYYPTDTSLGTWGAVAAVPGYTARWSAEGAWMGPWLASFGFVVIGIDTNSPNDFDTARGTQLLAALDYLTQKSPVRDRVDPSRLGVIGHSMGGGGAISAAERRPSLKAALPLAPFSPSQNLSSLRVPTMIMGARDDGTVTPSYLDGLYGGMPATTQSAYIELTGGGHGFPTWGNSNVTRRTIPWLKIFLDNDTRYTQFLCPSPADRTGVSRSQTKCPYVPPGTTTPPPSGGQIVGAGSGRCLDVPNASQTNGTQLQLWDCSANANQKWARTGTGELRVYGNKCLDAEGAGTSPGTRVIIWDCHGGQNQRWNVNTSGTITRADPVCAWTRKATAPGTAPRRSWGTAMAGPASAGPSGSED [TEP122] | 54.1 | < 3 | < 3 | < 3 | < 3 | < 3 | < 3 | < 3 | < 3 | 186 |  |  |  |  |  |  |  |  | 
9 | ADNPYQRGPDPTPASVGASRGTFATAQVSVPAGNGFGGGVIYYPTDTSQGRFGAVAVVPGYTATWAAEGAWMGPWLASFGFVVIGIDTNSRNDWDTARGTQLLAALDYLTQRSSVRDRVDASRAAVMGHSMGGGGAIYAALQRPSLKTTVGLAPFSASQTLNNMRVPTMLLAGQNDGTTTPASIRNYYGQVPSGVEKAYLELTGAGHGFPTSNNPTMMRNVIPWLKIFVDSDTRYTQFLCPLSNTNGIRSYESTCPLVPSPVPTDPPTSAPPTSTPPTTPPPTTPPPTTPAPGGPCAASYRTVNSWSGGFQGEVTVRAGGAPINGWTVRWTLGGGQSISQVWNGTLSTSGSTATVRNAPYNGSLPASGSTTFGFIANGSPSAPTLTCASP [TEP013] | 64 | < 3 | 5.5 ± 0.71 | 27 ± 1.4 | 53.5 ± 2.1 | < 3 | < 3 | 6 ± 1.4 | 10 ± 1.4 | 176 | < 3 | < 3 | < 3 | < 3 | < 3 | < 3 | < 3 | < 3 | 
10 | ADNPYQRGPDPTPAGVAASRGPFATAQTTVAPGNGFNGGTIYYPTDTSAGTWGAVAIVPGYTALFADEEAWMGPWLSSFGFVVIGIETNSRTDFDVARGTQLLAALDYLTQQSPVRDRVDTSRLSVIGHSMGGGGVVYATEHRPSLKAAVALAPFSPSQDMSTDRVPTMVMAGQNDTVVTPSYLDGLYATMPAATQSDFVQIAGADHVYYTHPQSTEMRILIPWLKIFVDNDTRYTQFLCPSLSDSSGISIYRSKCPYVPPGTSTTGGTTSGTTSGGTTTGGTTSGGTTTGGTTSGGTTSGGTSGSACTASYATVNTWSGGFQGEVTVTAGGKPVNGWTVRWTLAGGQGISQVWNGTVSTSGSDVSVRNVSYNGSLQPSTSTTFGFLGTGTPSDVSLSCTSP [ESM043] | 37 | 4 | 11 | 5 | < 3 |  |  |  |  | 31.4 |  |  |  |  |  |  |  |  | 
11 | DVNPFQRGPDPTAAGVAAARGPFATAQVTVPAGNGFGGGVVYYPTDTSQGTFGAIAIAPGYGTAWSYYAWQGPRLASFGFVVIGIETNTLNDYADARAAQLLAALDWLVTSSPVRDRVDRNRLAVGGHSMGGGGALLAAIQRPSLMTAIGMAPYVPGGDLSGIRIPTVLFAGQTDGTVTPSYALSAYTTIPGSVERAYVEIANEGHGFPAGGGGGNSGAFARTEMIWMKLFIDKDTRYAPFLCPSLSNMNGISRYQASCPLDPPGGTTPTPSATPTSSPTSTPTSTPSATSALRGAGSSRCLDVPGASQTNGTQLQIWDCNGQANQRWTSTSAGELRVYGGKCLDVNGAGTADGTSVIIWDCNGQNNQKWRLNSDGSITAVGANKCLDVSGAGTANGTKVQIWTCNGQANQRWTRT [ESM026] | 65.8 | < 3 | 4.5 ± 0.71 | 8.5 ± 0.71 | 9.5 ± 0.71 | < 3 | < 3 | < 3 | < 3 | 305 | < 3 | < 3 | < 3 | < 3 | < 3 | < 3 | < 3 | < 3 | 
12 | SNPAPDTGSGDGSSSQYQIGPDPTVSFLEASSGPFSVRTSNVSSLVSGFGGGTIHYPTGVNRPMAAIVVIPGFVSAESSIDWWGPKLASYGFVVMTIGTNSGFDQPPSRARQINNALDYLVAQNTNSRSPVNGMIDTNRLGAMGWSMGGGGTLRVAEEGRIKAAIPLAPWDTTSFRSNRTPTLIFACGSDSIAPVRTHASPFYNQIPTSTPKIFIEINRGNHYCANGGNSNNATLGRLGVAWMKRFLDEDRRYSQFLCGPRHTSDRNISESRDTCNF [ESM186] | 53.8 | < 3 | < 3 | 3 | 13 |  |  |  |  | 43 |  |  |  |  |  |  |  |  | 
